Experimental data as given in PMC3781937 (Molecular microbiology, 2013).

T1: YaaT (His6-SUMO tag removed, in the co-purified complex) (Bacillus subtilis, UniProt P37541 1-275)
T1 sequence (looked up): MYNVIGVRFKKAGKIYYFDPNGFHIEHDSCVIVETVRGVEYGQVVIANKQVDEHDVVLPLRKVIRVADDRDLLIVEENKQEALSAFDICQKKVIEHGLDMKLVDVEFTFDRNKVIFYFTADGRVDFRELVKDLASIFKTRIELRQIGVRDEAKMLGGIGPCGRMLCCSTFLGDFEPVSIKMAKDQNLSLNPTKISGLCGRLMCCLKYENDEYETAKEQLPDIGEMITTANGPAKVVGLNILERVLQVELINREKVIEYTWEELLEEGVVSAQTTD

T2: T18-Spo0F (Bacillus subtilis, UniProt P06628 1-124)
T2 sequence (looked up): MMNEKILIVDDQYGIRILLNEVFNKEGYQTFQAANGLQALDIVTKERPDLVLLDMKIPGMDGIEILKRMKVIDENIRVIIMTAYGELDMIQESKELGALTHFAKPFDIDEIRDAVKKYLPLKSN

B1: YmcA (GST tag removed) (natural protein, Bacillus subtilis, UniProt O31779 1-143, looked up)
chain: MTLYSKKDIVQQARNLAKMISETEEVDFFKRAEAQINENDKVSTIVNQIKALQKQAVNLKHYEKHEALKQVEAKIDALQEELEEIPVIQEFRDSQMEVNDLLQLVAHTISNQVTNEIITSTGGDLLKGETGSKVKHSNNSCSL
B2: YmcA-T25 (natural protein, Bacillus subtilis, UniProt O31779 1-143, looked up)
chain: B1 chain
B3: YlbF (GST tag removed, in the co-purified complex) (natural protein, Bacillus subtilis, UniProt O34412 1-149, looked up)
chain: MYATMESVRLQSEAQQLAEMILQSETAENYRNCYKRLQEDEEAGRIIRSFIKIKEQYEDVQRFGKYHPDYREISRKMREIKRELDLNDKVADFKRAENELQSILDEVSVEIGTAVSEHVKVPTGNPYFDGLSSCGGGCGSGGSCGCKVS

What was measured:
[1] = molecular target: B3; test: SEC
[2] = molecular target: T1, YaaT (His6-SUMO tag removed, in the …); test: SEC
[3] = molecular target: T2, T18-Spo0F; test: two-hybrid
[4] = molecular target: the molecule itself; test: two-hybrid

Binder: B1
- stoichiometry N [1]: 2.2 fold
- stoichiometry N [2]: 2.2 fold

Binder: B2
- β-galactosidase activity, ratio above the T18–T25 negative control [3]: 11.3 ratio above the T18–T25 negative control
- β-galactosidase activity, ratio above the T18–T25 negative control [4]: 48.3 ratio above the T18–T25 negative control

Binder: B3
- binding result [2]: binds
